In PMC10562830:

Biological target: Chikungunya virus-like particles of the 37997 strain (chikungunya virus (strain 37997))

B1: 506.C01 (antibody, V domains shown)
VH: QVQLQESGPGLVKPSQTLSLTCTVSGGSISSDDYYWTWIRLPPGKGLEWIGYIFYTGGTYYNPSLKSRVTISLDRSKNQFSLKLSSVTAADTAVYFCARAPETYCSTTNCYKGYFDSWGQGTLVTVSS
VL: DIQMTQSPSSVSASVGDRVTITCRASQGISSWLGWYQQKPGKAPKLLIYAASSLQSGVPSRFSGSGSGTDFTLTISSLQPEDFATYYCQQANSFPRTFGQGTKVEIK
  FRNT neutralisation of CHIKV-37997 and CHIKV-LR 2006 on Vero cells, EC50: < 10 ng/mL
